In assay [1] the target is human CLDN6 fused to GFP, expressed on engineered HEK293T cells (human) (UniProt P56747). In words: FACS dose curve, labelled mAb, HEK293T-CLDN6-mGFP cells.
The target of assay [2] is CLDN3/4 endogenously expressed on LS513 and MCF7 cells. Briefly: FACS dose curve, labelled mAb, MCF7 cells.
Assay [3] has the same target. Briefly: FACS dose curve, labelled mAb, LS513 cells.
Assay [4] has as its target human CLDN6 fused to GFP, expressed on engineered HEK293T cells (human) (UniProt P56747). In words: FACS, 293T clone with human CLDN6, 1.5 ug Ab. On the technique in general: Flow cytometry measures light scatter and fluorescence of single cells or particles in a stream.
For assay [5] the target is unchanged. Briefly: FACS, 293T clone with human CLDN6, 0.3 ug Ab.

B1: AB6 (antibody, V domains shown)
VH: DVQLQESGPGLVKSSQSLSLTCSVTGYSITSGYYWKWIRQFPGNKLEWMGYISYDGGINYNPSLKNRISITRDTSKNQFFLKLNSVTTEDTAKYYCARFGKGAMDYWGQGTSVTVSS
VL: AIVMFQSPSSLVVSAGEKVTMSCKSSQSLLNSRTRKNYLAWYQQKPGQSPKLLIYWASTRESGVPDRFTGSGSGTDFTLTISSVQAEDLAVYYCKQSYYLYTFGGGTKLEIK
Usually EC50 stands for the midpoint of the concentration-response curve. Low values mean greater potency, high ones weaker potency. With B1, the figures for the EC50 in assay [1], in assay [2] and in assay [3] were 1430 nM, 1.14 µM and 133 nM, respectively.

B2: AB5 (antibody, V domains shown)
VH: EVQLQQSGPELVKPGASVKMSCKASGYIFTHYIMHWVKQKPGQGLEWIGCINPYNDGTKYNEKFKGKATLTSDKSSSTAYMELSSLTSEDSAVYYCARYYGYPYYSMDYWGQGTSVTVSS
VL: DVLMTQTPLSLPVSLGDQPSISCRSSQSIVHSNGNTYLDWYLQKPGQSPKLLIYKVSNRFSGVPDRFSGSGSGTDFTLKISRVEAEDLGVYYCFQGSHVPFTFGSGTRLEIK
On to B2, for which the EC50 is 10 nM in assay [1], 1.49 µM in assay [2] and 781 nM in assay [3].

B3: AB3 (antibody, V domains shown)
VH: EVKLEESGGGLVQPGGSMKLSCVASGFTFSNYWMNWVRQSPEKGLEWVAQIRLKSDNYATHYAESVKGRFTISRDDSKRSVYLQMNNLRAEDTGTYYCNDGPPSGCWGQGTTLIVSS
VL: DIQMTQSPASLSASVGETVTITCRISENIYSYLAWYQQKQGKSPQLLVYNAKILVEGVPSRFSGSGSGTQFSLKINSLQPEDFGNYYCQHHYTVPWTFGGGTKLEIK
B3: the EC50 turned out to be 604 nM in assay [1], 5 µM in assay [2] and 5000 nM in assay [3].

B4: AB2 (antibody, V domains shown)
VH: EVKLEESGGGLVQPGGSMKLSCVASGFTFSDYWMNWVRQSPEKGLEWVAQIRLKSDNYATHYAESVKGRFTISRDDSKRSVYLQMNNLRAEDTGTYYCNDGPPSGCWGQGTTLIVSS
VL: DIQMTQSPASLSASVGETVTITCRISENIYSYLAWYQQKQGKSPQLLVYNAKILVEGVPSRFSGSGSGTQFSLKINSLQPEDFGNYYCQHHYTVPWTFGGGTKLEIK
For B4, the EC50 came to 182 nM in assay [1], 5 µM in assay [2] and 5000 nM in assay [3].

B5: AB9 (antibody, V domains shown)
VH: EVQLQQSGPELVKPGASVKMSCKASGYRFTDYNMHWVKQSHGKSLEWIGYINPNNGGTNYNQNFKGKATLTVNKSSSTAYMELRSLTSEDSAAYYCARDYLYFFDCWGQGTTLTVSS
VL: DIQMTQSPASQSASLGESVTITCLASQTIGTWLAWYQQKPGKSPQLLIYAAASLADGVPSRFSGSGSGTRFSFKISSLQAEDFVSYYCQQLYSIPRTFGGGTKLEIK
Take B5: the EC50 was 2670 nM in assay [1], 5 µM in assay [2] and 1040 nM in assay [3].

B6: AB1 (antibody, V domains shown)
VH: QVQLQQSAAELARPGASVKMSCKASGYTFTTYTMHWVKQRPGQGLEWIGFINPSSGYTDYNQKFKDRTTLTADKSSSTVYMQLSSLTSEDSAVYYCANGDYYVAYWGQGTLVTVSA
VL: QIVLTQSPAIMSASLGERVTMTCTASSSVSSTYFHWYQQKPGSSPKLWIYSTSNLASGVPRRFSGSASGTSYSLTISSMEAEDAATYYCHQYHRSPLTFGAGTKLELK
Consider B6, for which the EC50 is 109 nM in assay [1], 5 µM in assay [2] and 5000 nM in assay [3].

B7: AB7 (antibody, V domains shown)
VH: EVQLQQSGPELVKPGASMKISCKASGYSFTGYTMNWVKQSHGKNLEWIGLINPYNGGTNYNQKFKGKATLTVDKSSSTAYMELLSLTSEDSAVYYCARGVYDYDGFTYWGQGTLVTVSA
VL: QIVLTQSPAIMSASLGDRVTMTCTASSSVSSSYLHWYQQKPGSSPKLWIYSTSNLASGVPARFSGSGSGTSYSLTISSMEAEDAATYYCHQYHRSPPTFGSGTKLEIK
Regarding B7, the EC50 in assay [1] was 579 nM; in assay [2], 0.979 µM; in assay [3], 635 nM.

B8: AB11 (antibody, V domains shown)
VH: DVQLVESGGGLVQPRGSRKLSCAASGFTFSSFGMHWVRQAPEKGLEWVAYISSDSRTIYYADTVKGRFTISRDNPTNTLFLQMTSLRSEDTAMYYCARDYGRTYEAYWGQGTLVTVSA
VL: DIVLTQSPASLAVSLGQRATISCRASKSVSTSGYSYIHWYQQKPGQPPKLLIYLASNLESGVPARFSGSGSGTDFTLNIHPVEEEDAATYYCQHSRELPLTFGAGTKLELK
For the molecule B8, the EC50 was determined as 1700 nM in assay [1], 0.427 µM in assay [2] and 493 nM in assay [3].

B9: AB11-chim (antibody, V domains shown)
VH: DVQLVESGGGLVQPRGSRKLSCAASGFTFSSFGMHWVRQAPEKGLEWVAYISSDSRTIYYADTVKGRFTISRDNPTNTLFLQMTSLRSEDTAMYYCARDYGRTYEAYWGQGTLVTVSA
VL: DIVLTQSPASLAVSLGQRATISCRASKSVSTSGYSYIHWYQQKPGQPPKLLIYLASNLESGVPARFSGSGSGTDFTLNIHPVEEEDAATYYCQHSRELPLTFGAGTKLELK
Turning to B9, the FACS signal in assay [4] was 3490; in assay [5] it was 1670.

B10: AB11-2 (antibody, V domains shown)
VH: EVQLVESGGGLVQPGGSLRLSCAASGFTFSSFGMHWVRQAPGKGLEWVAYISSDSRTIYYADSVKGRFTISRDNAKNSLYLQMNSLRAEDTAVYYCARDYGRTYEAYWGQGTLVTVSS
VL: DIVMTQSPDSLAVSLGERATINCRASKSVSTSGYSYIHWYQQKPGQPPKLLIYLASNLESGVPDRFSGSGSGTDFTLTISSLQAEDVAVYYCQHSRELPLTFGQGTKLEIK
For the molecule B10, the values for the FACS signal in assay [4] and in assay [5] were 2560 and 1290, respectively.

B11: AB11-3 (antibody, V domains shown)
VH: EVQLVESGGGLVQPGGSLRLSCAASGFTFSSFGMHWVRQAPGKGLEWVAYISSDSRTIYYADSVKGRFTISRDNAKNSLYLQMNSLRAEDTAVYYCARDYGRTYEAYWGQGTLVTVSS
VL: DIVLTQSPDSLAVSLGERATINCRASKSVSTSGYSYIHWYQQKPGQPPKLLIYLASNLESGVPDRFSGSGSGTDFTLTISSVQAEDVAVYYCQHSRELPLTFGQGTKLELK
Regarding B11, the FACS signal turned out to be 2360 in assay [4] and 1010 in assay [5].

B12: AB4 (antibody, V domains shown)
VH: QVQLQQSGAELARPGASVKMSCKASGYTFTSYTMHWIKQRPGQGQEWIGYINPSSTYTHYIKKFKDKATLTADKSSSTAYMQLRSLTSEDSAVYYCSRGELGGFAYWGQGTLVTVSA
VL: DVVMTQTPLSLPVSLGDQASISCRSSQSLVHSDGNTYLNWYLQKPGQSPKLLIYKVSNRFSGVPDRFSGSGSGTDFTLKIRRVEAEDLGVYFCSQSTHVPYTFGGGTKLEIK
With B12, the EC50 worked out at 17 nM in assay [1], 0.653 µM in assay [2] and 730 nM in assay [3].

B13: AB10 (antibody, V domains shown)
VH: QIQLVQSGPALKKPGETVKISCKASGYTFTDYSMHWIKQAPGKGLKWMGWISTETGEPTYADGFKGRFDFSLETSADTAYLSINNLTNEDTATYFCTRGLWSSFAYWGQGTLVTVSA
VL: DVVMTQTPLSLPVSLGDQASISCRASQSLVHSNGNTYLHWFLQKPGQSPKLLIYKVSNRFSGVPDRFSGSGSRTDFTLKISRVEAEDLGVYFCSQITHVPYTFGGGTKLEIK
Turning to B13, the EC50 in assay [1] was 2760 nM; in assay [2], 5 µM; in assay [3], 1950 nM.
